Data published in patent US7541034 (US Dept. of Health and Human Services, dated 2009).

Columns and labels:
murine CD22 = target: T1, murine CD22 (murine, UniProt P35329 22-708); assay: not described (told as the reason for the choice of monkeys)
T1 sequence (looked up): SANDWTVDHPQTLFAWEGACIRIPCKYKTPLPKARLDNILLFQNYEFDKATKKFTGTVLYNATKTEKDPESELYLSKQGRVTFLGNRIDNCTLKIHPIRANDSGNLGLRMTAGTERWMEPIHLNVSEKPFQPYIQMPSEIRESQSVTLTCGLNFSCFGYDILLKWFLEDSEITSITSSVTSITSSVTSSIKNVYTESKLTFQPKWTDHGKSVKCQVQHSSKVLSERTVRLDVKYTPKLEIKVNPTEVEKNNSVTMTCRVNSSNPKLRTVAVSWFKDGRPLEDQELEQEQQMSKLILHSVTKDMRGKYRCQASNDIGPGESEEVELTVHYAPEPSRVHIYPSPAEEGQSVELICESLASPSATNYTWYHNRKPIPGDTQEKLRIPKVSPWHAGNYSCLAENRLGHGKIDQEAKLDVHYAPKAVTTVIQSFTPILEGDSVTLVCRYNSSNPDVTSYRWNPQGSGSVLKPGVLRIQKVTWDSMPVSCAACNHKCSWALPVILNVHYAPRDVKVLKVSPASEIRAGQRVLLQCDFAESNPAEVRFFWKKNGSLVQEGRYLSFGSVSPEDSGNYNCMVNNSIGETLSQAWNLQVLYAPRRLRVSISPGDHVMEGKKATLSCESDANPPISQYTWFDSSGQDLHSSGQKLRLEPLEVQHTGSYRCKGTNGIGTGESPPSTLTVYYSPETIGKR

[1] = target: T2, CD22 (human, on CA46, Daudi and other human B-cell lines and on fresh patient leukemia cells) (human, UniProt P20273 20-847); assay: competition of unlabelled IgG against 125I-labelled RFB4 IgG on CA46 cells, 4 C, gamma counting
T2 construct: whole, on cells; also called CD22 antigen
T2 sequence (looked up): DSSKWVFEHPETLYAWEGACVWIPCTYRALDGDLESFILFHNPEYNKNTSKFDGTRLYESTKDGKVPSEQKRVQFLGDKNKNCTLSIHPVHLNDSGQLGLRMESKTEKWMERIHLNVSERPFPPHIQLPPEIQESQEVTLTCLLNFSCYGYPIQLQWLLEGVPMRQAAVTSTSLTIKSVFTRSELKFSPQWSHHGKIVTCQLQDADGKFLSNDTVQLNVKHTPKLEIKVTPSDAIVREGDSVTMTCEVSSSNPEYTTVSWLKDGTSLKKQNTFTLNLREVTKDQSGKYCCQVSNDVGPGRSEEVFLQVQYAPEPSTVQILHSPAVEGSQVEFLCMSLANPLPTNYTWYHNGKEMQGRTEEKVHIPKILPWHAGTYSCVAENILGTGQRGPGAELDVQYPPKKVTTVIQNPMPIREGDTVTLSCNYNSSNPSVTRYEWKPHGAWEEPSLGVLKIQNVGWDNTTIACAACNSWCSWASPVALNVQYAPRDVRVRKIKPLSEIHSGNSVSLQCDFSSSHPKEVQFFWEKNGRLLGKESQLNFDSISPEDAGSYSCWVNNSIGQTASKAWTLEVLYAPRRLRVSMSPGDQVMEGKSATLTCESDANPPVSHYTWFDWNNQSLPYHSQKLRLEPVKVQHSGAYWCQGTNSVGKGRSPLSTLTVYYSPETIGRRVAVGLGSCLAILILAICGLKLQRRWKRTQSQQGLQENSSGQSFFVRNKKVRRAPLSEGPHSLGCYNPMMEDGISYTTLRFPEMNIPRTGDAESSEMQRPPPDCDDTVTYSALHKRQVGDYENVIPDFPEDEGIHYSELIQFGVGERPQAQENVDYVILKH

[2] = target: T2, CD22 (human, on CA46, Daudi and other …); assay: competition of unlabelled IgG against 125I-labelled RFB4 IgG on Daudi cells, 4 C, gamma counting

B1: RFB4 IgG (antibody, V domains shown)
VH: EVQLVESGGGLVKPGGSLKLSCAASGFAFSIYDMSWVRQTPEKRLEWVAYISSGGGTTYYPDTVKGRFTISRDNAKNTLYLQMSSLKSEDTAMYYCARHSGYGSSYGVLFAYWGQGTLVTVSA
VL: DIQMTQTTSSLSASLGDRVTISCRASQDISNYLNWYQQKPDGTVKLLIYYTSILHSGVPSRFSGSGSGTDYSLTISNLEQEDFATYFCQQGNTLPWTFGGGTKLEIK
notes: also called RFB4 mAb; native RFB4 IgG
Murine CD22
  binding result: no binding
[1]
  IC50: 4.5 nM
[2]
  IC50: 10 nM
